Test results from US10385103B2, “Cell-permeable (ICP)-SOCS3 recombinant protein and uses thereof” (CELLIVERY THERAPEUTICS, INC., priority 2014, dated 2019).
Entries after “also recorded” stand apart in the source; their conditions may differ. Read-outs that look alike come from different tables or passages of the source.

Assays:
PANC-1-Luc cells = test: Tumor targeting in orthotopic pancreatic cancer xenograft model (Alexa680 imaging); assay type: in vivo, Balb/c nu/nu mice; details: IV 40 mg/kg Alexa680-labeled protein; listed as iCP-SOCS3, 40 mg/kg
Protocol: Tumor-targeting of the anticancer agent iCP-SOCS3 (HM165S3B) recombinant proteins was investigated in an orthotopic xenograft model. The protocol was adapted from World J Gastroenterol. 2014 Jul. 28; 20(28): 9476-9485. […] After 7 weeks, the mice were IP injected with 100 μl of luciferin (Sigma-Aldrich, St. Louis, Mo., USA) and imaged by Xenogen IVIS-200 imaging system 15 minute later. As shown in FIG. 88 (A), pancreatic cancer model was well established.
The iCP-SOCS3 recombinant proteins were labeled and IV injected to the mice with 40 mg/kg according to a manual of Alexa680 kit (Thermo Fisher Scientific, San Jose, Calif., USA).

HepG2 tumor = test: Anti-tumor activity in cell-derived xenograft model; details: for inhibition on the tumor size: observation 3 weeks
Protocol: Female Balb/c^nu/nu mice (5-week-old, Doo-Yeol Biotech Co. Ltd. Korea) were subcutaneously implanted with Hep3B2.1-7 tumor block (1 mm^3) into the left back side of the mouse. […] Tumor size was monitored by measuring the longest (length) and shortest dimensions (width) once a day with a dial caliper, and tumor volume was calculated as width2×length×0.5.
Then, tumor volumes were examined. […] Then, tumor volumes were examined.

HepG2 cells = test: Induction of apoptosis, Annexin V/7-AAD staining; assay type: cell-based, human; details: for induction of apoptosis (Annexin V), HepG2, dose dependence: example 20-1
Protocol: AGS cells (gastric carcinoma cell line) (American Type Culture Collection; ATCC) were seeded in a 12-well plate at a density of 1×10^5 cells/well, and then treated with 10 uM of aMTD/SD-fused SOCS3 for 14 hours. Cancer cell death was analyzed by Annexin V analysis. Annexin V/7-Aminoactinomycin D (7-AAD) staining was performed using flow cytometry according to the manufacturer's guidelines (BD Pharmingen, San Diego, Calif., USA). Briefly, cells were washed three times with ice-cold PBS. The cells were then resuspended in 100 μl of binding buffer and incubated with 1 μl of 7-AAD and 1 μl of annexin V-PE for 30 min in the dark at 37° C. Flow cytometric analysis was immediately performed using a guava easyCyte™ 8 Instrument (Merck Millipore, Darmstadt, Germany).
Annexin V/7-Aminoactinomycin D (7-AAD) staining was performed using flow cytometry according to the manufacturer's guidelines (BD Pharmingen, San Diego, Calif., USA). Briefly, 1×10^6 cells were washed three times with ice-cold PBS. The cells were then resuspended in 100 μl of binding buffer and incubated with 1 μl of 7-AAD and 1 μl of […] for 30 min in the dark at 4° C. Flow cytometric analysis was immediately performed using a guava easyCyte™ 8 Instrument (Merck Millipore, Darmstadt, Germany). In this regard, Cisplatin® (IC50: 30 μM) was used as a reference drug.
The effect of inducing apoptosis of Chang liver cells was measured in the same manner as in Example 11-2, except that as target cell lines, normal Chang liver cells and hepatocellular carcinoma cell lines, Hep3B, HepG2, Huh7, and SK-HEP-1 were used, and as a reference drug, 5-FU® (IC50: 40 μM) was used.

RAW 264.7 cells = test: Cell-permeability of FITC-labeled SOCS3 recombinant proteins (flow cytometry); assay type: cell-based
Protocol: To examine cell-permeability of SOCS3 recombinant protein, SOCS3 recombinant proteins were conjugated to 5/6-fluorescein isothiocyanate (FITC). RAW 264.7 (KCLB, Seoul, South Korea) (FIG. 20) or NIH3T3 cells (KCLB, Seoul, South Korea) (FIG. 21) were treated with 10 μM FITC-labeled SOCS3 recombinant proteins and cultivated for 1 hr at 37° C.
In this regard, RAW 264.7 cells were cultured in a DMEM medium containing 10% fetal bovine serum (FBS, Hyclone, USA) and […] of 1% penicillin/streptomycin (Hyclone, USA).
After cultivation, the cells were washed three times with ice-cold PBS (Phosphate-buffered saline, Hyclone, USA) and treated with proteinase K (10 μg/mL, SIGMA, USA) to remove surface-bound proteins, and internalized proteins were measured by flow cytometry (FlowJo cytometric analysis software, Guava, Millipore, Darmstadt, Germany). Untreated cells (gray) and equimolar concentration of unconjugated FITC (FITC only, green)-treated cells were served as control (FIG. 20). Each of NIH3T3 cells was incubated for 1 hour at 37° C. with 10 μM FITC-labeled SOCS3 protein. For nuclear staining, a mixture of […] Mounting Medium (Vector laboratories, Burlingame, Calif.) and DAPI (4′,6-diamidino-2-phenylindole) was added to NIH3T3 cells, and visualized using a confocal laser microscope (LSM700, Zeiss, Germany) (FIG. 21).

[1] = Solubility/yield of SOCS3 recombinant proteins expressed and purified from E. coli; assay type: physicochemical
Protocol: Thereafter, the recombinant protein gene-introduced E. coli was inoculated in 7 ml of LB medium, and then incubated at 37° C. overnight. The E. coli was inoculated in 700 ml of LB medium and incubated at 37° C. until OD600 reached 0.6. To this culture medium, 0.6 mM of isopropyl-β-D-thiogalactoside (IPTG, Gen Depot, USA) was added as a protein expression inducer, followed by further incubation at 37° C. for 3 hours. This culture medium was centrifuged at 4° C. and 8,000 rpm for 10 minutes and a supernatant was discarded to recover a cell pellet. The cell pellet thus recovered was suspended in a lysis buffer (100 mM NaH2PO4, 10 mM Tris-HCl, 8 M Urea, pH 8.0), and cells were disrupted by sonication (on/off time: 30 sec/30 sec, on time 2 hours, amplify 40%), and centrifuged at 15,000 rpm for 30 min to obtain a soluble fraction and an insoluble fraction.
After purification, the proteins were put in a SnakeSkin Dialysis Tubing bag (pore size: 10000 mw, Thermo scientific, USA) and then they were dialyzed by physiological buffer (DMEM). The strain lysate where protein expression was not induced, the strain lysate where protein expression was induced by addition of IPTG, and purified proteins were loaded on SDS-PAGE to analyze protein expression characteristics and expression levels (FIGS. 19 and 20).
Solubility of aMTD/SD-fused SOCS3 proteins was scored on a 5 point scale compared with that of SOCS3 proteins lacking the solubilization domain.

STAT3 = test: Cell-to-cell function: phospho-STAT3 in PANC-1 cells seeded with protein-treated RAW 264.7 cells (western blot); assay type: cell-based; details: RAW 264.7 treated with 5 μM protein 2 hour, seeded on PANC-1, 20 ng/ml IFN-γ 15 minutes
Protocol: For this, RAW 264.7 cells were treated with 5 μM of FITC-labeled HM165S3B, HTS3B for 2 hour and washed with PBS two times. Thereafter, they were seeded on PANC-1 cell, incubated for 2 hours and treated with 20 ng/ml of IFN-γ for 15 minutes, followed by Western blotting in the same manner as in Example 8-1. And Cell-to-cell protein transfer was assessed by flow cytometry.

B1: HM165S3B: His-tagged recombinant protein of aMTD165, human SOCS3 and solubilization domain B; prototype improved cell-permeable SOCS3 (protein)
chain: MGSSHHHHHHSSGLVPRGSHMALAVPVALAIVPVTHSKFPAAGMETSRPLDTSLRLKTFSSKSEYQLVVNAVRKLQESGFYWSAVTGGEANLLLSAEPAGTFLIRDSSDQRHFFTLSVKTQSGTKNLRIQCEGGSFSLQSDPRSTQPVPRFDCVLKLVHHYMETPPPGAPSFPSPPTEPSSEVPEQPSAQPLPGSPPRRAYYIYSGGEKIPLVLSRPLSSNVATLQHLCRKTVNGHLDSYEKVTQLPGPIREFLDQYDAPLGSMAEQSDKDVKYYTLEEIQKHKDSKSTWVILHHKVYDLTKFLEEHPGGEEVLGEQAGGDATENFEDVGHSTDARELSKTYIIGELHPDDRSKIAKPSETL
modifications: Amino acid sequence of HM165S3B
- biodistribution / tumor accumulation (PANC-1-Luc cells): delivered to every part of the body at 5 minutes; also recorded: a large amount of the proteins were accumulated only in tumor
- tumor growth inhibition at day 42 (HepG2 tumor; IV 600 μg/head for 21 days, 3 weeks after termination): 67%
- inhibition on the tumor size (HepG2 tumor; IV 25 mg/kg every day for 3 weeks): 60%
- inhibition on the tumor size (HepG2 tumor; IV 50 mg/kg every day for 3 weeks): 76%
- inhibition on the tumor size (HepG2 tumor; IV 50 mg/kg three times a week for 3 weeks): 66%
- induction of apoptosis (Annexin V), HepG2, dose dependence (HepG2 cells): dose-dependently efficient inducer of apoptosis
- induction of apoptosis (Annexin V), HepG2, dose dependence (HepG2 cells; listed as iCP-SOCS3): upon treatment of 10 uM or more of iCP-SOCS3, there was no difference in induction of apoptosis
- induction of apoptosis (Annexin V), HepG2 (HepG2 cells; example 20-2): considerably efficient inducer of apoptosis
- dose-dependency of cell-permeability (RAW 264.7 cells; 0.05 μM~10 μM, 1 hrs): dose-dependent
- cell-permeability (protein uptake) (RAW 264.7 cells; 10 μM FITC-labeled protein, 1 hr, 37° C.): efficiently entered the cells; also recorded: very efficient; also recorded: showed the highest cell-permeability; also recorded: high cell permeability
- time-dependency of cell-permeability (RAW 264.7 cells; 10 μM, 5~180 minutes): high level of cell-permeability of iCP-SOCS3 was observed only 5 minutes post-treatment and could be seen even at 180 minutes mark
- solubility/yield [1]: high solubility/yield
- solubility (tendency to precipitate) ([1]; expressed and purified in E. coli): had little tendency to precipitate
- solubility/yield ([1]; listed as SDB-fused iCP-SOCS3 recombinant protein): showed the highest solubility/yield
- solubility/yield ([1]; listed as aMTD165/SD-fused SOCS3 recombinant proteins): much higher than that of TAT/SD-fused SOCS3 or PolyR/SD-fused SOCS3 recombinant proteins
- phospho-STAT3 (cell-to-cell function) (STAT3): reduced
